B1: Type IV secretion system protein virB8 (Brucella suis biovar 1 (strain 1330)), Q7CEG3 (parent)
chain: MFGRKQSPQKSVKNGQGNAPSVYDEALNWEAAHVRLVEKSERRAWKIAGAFGTITVLLGIGIAGMLPLKQHVPYLVRVNAQTGAPDILTSLDEKSVSYDTVMDKYWLSQYVIARETYDWYTLQKDYETVGMLSSPSEGQSYASQFQGDKALDKQYGSNVRTSVTIVSIVPNGKGIGTVRFAKTTKRTNETGDGETTHWIATIGYQYVNPSLMSESARLTNPLGFNVTSYRVDPEMGVVQ
partner: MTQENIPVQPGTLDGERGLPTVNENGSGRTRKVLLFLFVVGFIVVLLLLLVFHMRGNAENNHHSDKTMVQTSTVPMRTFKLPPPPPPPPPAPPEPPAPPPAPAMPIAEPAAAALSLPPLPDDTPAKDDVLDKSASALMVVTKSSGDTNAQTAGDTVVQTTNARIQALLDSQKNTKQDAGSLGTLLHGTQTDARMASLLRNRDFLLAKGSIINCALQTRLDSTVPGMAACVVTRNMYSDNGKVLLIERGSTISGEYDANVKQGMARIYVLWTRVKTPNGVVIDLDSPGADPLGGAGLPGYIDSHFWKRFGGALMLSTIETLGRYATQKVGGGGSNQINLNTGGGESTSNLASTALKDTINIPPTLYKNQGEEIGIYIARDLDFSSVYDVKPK

Variants of: B1
Settings: with virba_brusu virB10, Q9RPX5

Row | Variant | effect of a mutation on the interaction
1 | T201A | decreasing interaction strength
2 | T201Y | decreasing interaction strength
